B1: Homeobox expressed in ES cells 1, residues 110 to 165; numbered along this chain, Q9UBX0 (parent)
chain: RPRTAFTQNQIEVLENVFRVNCYPGIDIREDLAQKLNLEEDRIQIWFQNRRAKLKR

Variants of: B1
Experiment: abundance fitness (aPCA) (normalised: wild type 0, dead -1); higher = more abundant; growth selection in yeast, the domain comes from the species named
Settings: Homo sapiens

Abundance fitness: each site, then its substitutions
V20: K 0.106 | D 0.136 | Y -0.667 | S 0.072 | R -0.118 | M -0.091 | W -0.436 | A -0.052 | T -0.03 | H -0.021 | C -0.218 | L -0.186 | I 0.077 | F 0.333 | G -0.157 | E -0.1 | N 0.208
N9: V 0.017 | R -0.042 | S -0.004 | T -0.132 | A -0.169 | C -0.293 | E 0.288 | K -0.149 | H 0.148 | L 0.045 | Y 0.044 | I 0.118 | D 0.187 | M 0.381 | F -0.243 | G -0.103 | P -0.292
Q10: L -0.744 | R -0.662 | E -0.278 | I -0.404 | D -0.287 | F -0.993 | V -0.279 | P -0.922 | M 0.017 | G -0.574 | H -0.594
F18: L -0.459 | D -0.701 | M -1.06 | K -0.845 | R -0.71 | Y -0.083 | T -0.82 | S -0.819 | I -0.328 | Q -0.891 | G -0.812 | C -0.625
C22: I 0.076 | Y 0.009 | L -0.134 | W -0.066 | V -0.392 | K -0.328 | Q 0.156 | P 0.079 | M 0.425 | G -0.182 | E 0.227 | F -0.467 | A -0.061 | R 0.054 | S 0.187 | T -0.013 | D -0.021
P2: V 0.308 | C 0.048 | H 0.545 | A 0.028 | Y 0.772 | E 0.734 | G 0.309 | T 0.126 | W -0.046 | R -0.031 | F 0.425 | K 0.522 | L 0.297 | D 0.699 | M 0.333 | Q 0.386
N16: M -0.215 | T -0.125 | C -0.365 | S -0.02 | L -0.561 | F -0.962 | E -0.114 | D -0.073 | Q -0.073 | P -1 | Y -0.56 | R -0.417 | K -0.034 | V -0.701 | W -0.755
A5: L 0.249 | C 0.377 | K 0.412 | E 0.596 | S 0.424 | H 0.164 | I 0.275 | R 0.132 | N 0.391 | W -0.21 | F 0.324 | P 0.295 | M 0.609 | D 0.653 | Y 0.429 | V 0.296 | Q 0.384
E15: R -0.503 | C -0.567 | V -0.81 | P -0.499 | G -0.686 | A -0.832 | M -0.196 | Y -0.528 | L -0.725 | D -0.621 | H -0.463 | T -0.741 | S -0.854
N21: M -0.058 | Y -0.592 | F -0.868 | C -0.69 | W -0.608 | S -0.454 | R -0.948 | D -0.412 | V -0.578 | Q -0.158 | L -0.807 | A -1.03 | I -0.522 | G -0.262
R3: H -0.433 | K -0.089 | E 0.24 | M 0.15 | L -0.008 | A 0.182 | Q 0.27 | T -0.013 | S -0.181 | G 0.178 | Y 0.682 | N -0.145 | F 0.376 | D 0.126 | C -0.462 | W -0.674 | I 0.485
Q8: D -0.094 | F -0.441 | A 0.158 | H -0.373 | E -0.019 | K -0.179 | T -0.244 | Y -0.264 | W -0.598 | G -0.416 | M -0.168 | C -0.183 | V 0.122 | S 0.002 | P -0.082
F6: R -0.688 | G -0.797 | M 0.123 | N -0.454 | I -0.075 | C -0.673 | Y -0.065 | Q -0.678 | W -0.365 | V -0.155 | T -0.859 | S -0.791 | A -0.865 | D -0.599 | K -0.703
L14: A -1.02 | R -0.77 | I -0.298 | E -0.87 | G -0.88 | M -0.267 | T -0.463 | K -0.519 | N -0.506 | W -0.625
R1: A 0.352 | G -0.505 | S -0.482 | Y 0.406 | V 0.134 | T -0.455 | C 0.12
Y23: N 0.114 | A 0.05 | Q -0.251 | M -0.44 | F -0.411 | K -0.262 | D -0.23 | L -0.338 | C 0.05 | R -0.381
I11: Q -0.114 | V -0.145 | G -0.891 | K -0.237 | T -0.187 | D -0.072 | C -0.628 | M -0.652 | P -0.598 | F -0.648 | R -0.472 | E 0.274 | N 0.091 | Y -0.46 | A -0.344 | W -0.292
E12: K 0.487 | C -0.341 | L -0.236 | G -0.525 | N -0.148 | F 0.203 | A -0.257 | W -0.704 | T -0.009 | D 0.28 | Q 0.154 | R -0.346 | V -0.137 | P -1.07 | I -0.612 | S 0.016 | Y -0.264
T7: N -0.084 | D 0.161 | H -0.312 | L -0.417 | K -0.245 | A -0.068 | W -0.845 | S 0.112 | R -0.587 | C -0.666 | F -0.701 | V -0.681 | E -0.352 | M -0.288 | P -0.664 | G -0.401
T4: D -0.192 | H 0.069 | S -0.187 | Y -0.163 | K 0.116 | N -0.067 | G 0.129 | M 0.634 | C 0.74 | E 0.402 | V -0.003 | F 0.052 | P 0.125 | Q 0.635 | W -0.501 | A -0.164 | I -0.007 | R 0.171
V13: P -0.596 | C -0.149 | N -0.278 | I 0.467 | L -0.543 | S -0.224 | Q -0.184 | A -0.272 | H 0.023 | D -0.757 | Y -0.757 | F -0.378 | M 0.618 | K -0.458 | T -0.141
R19: K -0.105 | C -0.354 | V -0.142 | Q -0.187 | I -0.327 | G -0.452 | M -0.529 | Y -0.614 | S -0.334 | E -0.291 | T -0.01 | H -0.46 | W -0.64 | F -0.467
V17: R -0.84 | S -0.335 | A -0.06 | T -0.151 | Y -0.293 | Q -0.359 | P -0.743 | F -0.562 | M -0.197 | H -0.427 | E -0.372 | I -0.091 | K -0.552 | W -0.923 | L -0.308

— the Human Domainome abundance scans (Beltran et al. 2025)
